This is an account of results in US20180155451A1 (published 2018).

One test concerns the target T1, FcγRIa (human, UniProt P12314 16-292).
T1 construct: extracellular domain; also called FcgRIa; FcgRI; not shown: His tag attached to the C terminus
Description: SPR (Biacore4000), kinetic analysis. The method, then:
The variants described above were assessed for their binding to FcγR according to the method described in Reference Example 8.
(§1) Analysis of interaction between obj ective antibody and the FcγR was carried out using Biacore T100 (GE Healthcare), Biacore T200, Biacore A100, and Biacore 4000. HBS-EP+ (GE Healthcare) was used as the running buffer, and the measurement temperature was set to 25° C. Chips produced by immobilizing the antigen peptide by the amine coupling method to a Series S sensor Chip CM5 (GE Healthcare), chips produced by allowing preliminarily biotinylated antigen peptides to interact with and immobilize onto a Series S Sensor Chip SA (certified) (GE Healthcare), chips produced by immobilizing Protein L (ACTIGEN, BioVision) to Series S Sencor Chip CM5 (GE Healthcare), or chips produced by immobilizing Protein A/G (Thermo Scientific) to Series S Sencor Chip CM5 (GE Healthcare) were used. Antibodies of interest were captured onto these chips, and allowed to interact to each FcγR diluted with running buffer. To regenerate and repeatedly use the chip, the antibodies captured onto the chip were washed off by reacting 10 mM glycine-HCl, pH 1.5.
(In general: Surface plasmon resonance follows binding to a sensor surface in real time, without labels.)

In a further test the target is T2, FcgRIIb (human, UniProt P31994 43-217).
T2 construct: extracellular domain; Expressed in FreeStyle293 cells and purified; used as analyte in Biacore; also called FcγRIIb; CD32B; not shown: His tag attached to the C terminus
T2 sequence (looked up): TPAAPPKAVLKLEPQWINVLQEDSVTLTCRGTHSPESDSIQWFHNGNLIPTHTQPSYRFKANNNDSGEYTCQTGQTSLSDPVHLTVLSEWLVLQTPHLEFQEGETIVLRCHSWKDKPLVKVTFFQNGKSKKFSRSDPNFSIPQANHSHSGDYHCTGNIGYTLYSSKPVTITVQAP
Nature of the test: SPR (Biacore), antibody captured on chip, FcgR extracellular domain as analyte. As to the method:
as §1

In the next test the target is T3, FcgRIIa H (human, UniProt P12318 34-217).
T3 construct: extracellular domain; also called FcγRIIa H; FcγRIIa type H; not shown: His tag attached to the C terminus
T3 sequence (looked up): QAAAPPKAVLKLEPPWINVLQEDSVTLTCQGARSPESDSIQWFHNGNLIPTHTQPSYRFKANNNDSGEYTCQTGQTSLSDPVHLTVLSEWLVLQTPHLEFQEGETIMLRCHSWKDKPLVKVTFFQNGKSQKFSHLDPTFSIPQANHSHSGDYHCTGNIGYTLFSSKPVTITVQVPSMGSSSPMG
The description is as above. The method, then:
as §1

The target in another test is T4, FcgRIIa R (human, UniProt P12318 34-217).
T4 construct: extracellular domain; also called FcγRIIa R; FcγRIIa type R; not shown: His tag attached to the C terminus
T4 sequence (looked up): T3 sequence (looked up) with H134R
The test is described as above. As to the method:
as §1

The next test deals with T5, FcgRIa (human, UniProt P12314 16-292).
T5 construct: extracellular domain; Expressed in FreeStyle293 cells and purified; used as analyte in Biacore; also called FcγRIa; FcγRI; not shown: His tag attached to the C terminus
T5 sequence (P12314 16-292): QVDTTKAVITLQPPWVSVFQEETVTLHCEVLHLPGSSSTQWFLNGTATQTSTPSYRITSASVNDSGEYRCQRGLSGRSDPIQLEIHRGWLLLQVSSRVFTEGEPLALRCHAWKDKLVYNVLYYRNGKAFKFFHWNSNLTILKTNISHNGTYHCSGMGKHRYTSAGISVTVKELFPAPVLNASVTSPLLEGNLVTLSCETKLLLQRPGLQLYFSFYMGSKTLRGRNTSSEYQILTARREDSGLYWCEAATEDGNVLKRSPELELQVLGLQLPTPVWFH
The description is as above. As to the method:
as §1

Test [1] has as its target T6, FcgRIIIa V (human, UniProt P08637 17-208).
T6 construct: extracellular domain; also called FcγRIIIa V; not shown: His tag attached to the C terminus
Described as above. The method, then:
as §1

Test [2] concerns the target T7, FcgRIIIa F (human, UniProt P08637 17-208).
T7 construct: extracellular domain; also called FcγRIIIa F; not shown: His tag attached to the C terminus
Described as above. As to the method: as §1

Test [3] addresses T6, FcgRIIIa V. The test is described as above. The method, then: (§2) Similarly, H240-AK072 and L73-k0, and H240-BH076 and L73-k0 were each combined to express and prepare the homodimerized antibodies H240-AK072/L73-k0 and H240-BH076/L73-k0. The antibodies were compared for the binding to each FcgR according to the method described in Reference Example 8.
as §1
This is another data set of the same source.

Test [4] has as its target T7, FcgRIIIa F. Described as above. As to the method: as §2, §1
The source holds these as a separate data set.

Test [5] has as its target T8, FcgRIIIa F extracellular domain with C-terminal His tag (human, UniProt P08637 17-208).
T8 construct: extracellular domain; also called FcγRIIIa F; FcγRIIIa (F158); not shown: His tag attached to the C terminus
Description: SPR (Biacore), antibody captured on chip, FcγR extracellular domain as analyte, kinetic analysis. The method, then:
as §1

In test [6] the target is T9, FcgRIIIa V extracellular domain with C-terminal His tag (human, UniProt P08637 17-208).
T9 construct: extracellular domain; also called FcγRIIIa V; FcγRIIIa (V158); not shown: His tag attached to the C terminus
T9 sequence (P08637 17-208 F176V): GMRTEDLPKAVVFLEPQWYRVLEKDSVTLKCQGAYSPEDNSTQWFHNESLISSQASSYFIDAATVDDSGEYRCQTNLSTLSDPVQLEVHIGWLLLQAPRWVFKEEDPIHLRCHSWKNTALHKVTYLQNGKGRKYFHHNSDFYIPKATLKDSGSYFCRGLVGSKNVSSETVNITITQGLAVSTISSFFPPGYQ
The description is as above. The method, then: as §1

Test [7] addresses T10, FcgRIIa R extracellular domain with C-terminal His tag (human, UniProt P12318 34-217).
T10 construct: extracellular domain; also called FcγRIIa R; FcγRIIa type R; not shown: His tag attached to the C terminus
T10 sequence (looked up): T3 sequence (looked up) with H134R
Described as above. The method, then: as §1

Test [8] deals with T11, FcgRIa extracellular domain with C-terminal His tag (human, UniProt P12314 16-292).
T11 construct: extracellular domain; Expressed in FreeStyle293 cells; used as analyte in Biacore; also called FcγRIa; FcγRI; not shown: His tag attached to the C terminus
T11 sequence (P12314 16-292): as the sequence (P12314 16-292) above
Described as above. As to the method:
as §1

Test [9] concerns the target T8, FcgRIIIa F extracellular domain with …. The description is as above. As to the method: as §1
This is another data set of the same source.

In test [10] the target is T12, FcgRIIa H extracellular domain with C-terminal His tag (human, UniProt P12318 34-217).
T12 construct: extracellular domain; also called FcγRIIa H; FcγRIIa type H; not shown: His tag attached to the C terminus
T12 sequence (looked up): T3 sequence (looked up)
The description is as above. As to the method:
as §1

Test [11] concerns the target T13, FcgRIIb extracellular domain with C-terminal His tag (human, UniProt P31994 43-217).
T13 construct: extracellular domain; also called FcγRIIb; not shown: His tag attached to the C terminus
T13 sequence (looked up): T2 sequence (looked up)
Described as above. As to the method:
as §1

The target in test [12] is T9, FcgRIIIa V extracellular domain with …. The description is as above. As to the method: as §1
The source holds these as a separate data set.

Broadly, the koff is the first-order rate constant of dissociation. Low values mean a long-lived complex, high ones a short-lived complex. By Kd is commonly meant the concentration at which binding is half-saturated. A higher Kd goes with weaker binding.

Positions count from the first letter of the chain named. Names may count otherwise. Like-named read-outs stand apart in the source and are kept apart here.

T8 sequence (P08637 17-208): as the sequence (P08637 17-208 F176V) above, with V160F counted along it
T7 sequence (P08637 17-208): as the sequence (P08637 17-208 F176V) above, with V160F counted along it
T6 sequence (P08637 17-208 F176V limits assumed): as the sequence (P08637 17-208 F176V) above
T1 sequence (P12314 16-292): as the sequence (P12314 16-292) above

B1: H240-Kn120/H240-Hl073/L73-k0 (antibody, human IgG1, kappa)
heavy 1: QDQLVQSGAEVKKPGASVKVSCKASGFNIKDTYIQWVRQAPGQGLEWMGRIDPLRKQTKYREKFEGRVTITADTSTNTAYMELSSLRSEDTAVYYCVRSGREFDYWGQGTLVTVSSASTKGPSVFPLAPSSKSTSGGTAALGCLVKDYFPEPVTVSWNSGALTSGVHTFPAVLQSSGLYSLSSVVTVPSSSLGTQTYICNVNHKPSNTKVDKKVEPKSCDKTHTCPPCPAPEYYWGPMVFLFPPKPKDTLMISRTPEVTCVVVDVSDEDPEVKFNWYVDGVEVHNAKTKPREEQYNATYRVVSVLTVLHQDWLNGKEYKCKVSNKDLPAPIEKTISKAKGQPREPQVCTLPPSRDELTKNQVSLWCLVKGFYPSDIAVEWESNGQPENNYKTTPPVLDSDGSFFLYSKLTVDKSRWQQGNVFSCSVMHEALHNHYTQKSLSLSP
heavy 2: QDQLVQSGAEVKKPGASVKVSCKASGFNIKDTYIQWVRQAPGQGLEWMGRIDPLRKQTKYREKFEGRVTITADTSTNTAYMELSSLRSEDTAVYYCVRSGREFDYWGQGTLVTVSSASTKGPSVFPLAPSSKSTSGGTAALGCLVKDYFPEPVTVSWNSGALTSGVHTFPAVLQSSGLYSLSSVVTVPSSSLGTQTYICNVNHKPSNTKVDKKVEPKSCDKTHTCPPCPAPELLSGPSVFLFPPKPKDTLMISRTPEVTCVVVDVSHEEPEVKFNWYVDGVEVHNAKTKPREEQYNSTYRVVSVLTVLHQDWLNGKEYKCKVSNDALPKPIEETISKAKGQPREPQVYTLPPSRCELTKNQVSLSCAVKGFYPSDIAVEWESNGQPENNYKTTPPVLDSDGSFFLVSKLTVDKSRWQQGNVFSCSVMHEALHNHYTQKSLSLSP
light: DIQMTQSPSSLSASVGDRVTITCRASQDIHKYIAWYQQKPGQAPRLLIQYTSTLQPGVPSRFSGSGSGTDYTFTISSLQPEDIATYYCLQYEQLRTFGGGTKVEIKRTVAAPSVFIFPPSDEQLKSGTASVVCLLNNFYPREAKVQWKVDNALQSGNSQESVTEQDSKDSTYSLSSTLTLSKADYEKHKVYACEVTHQGLSSPVTKSFNRGEC
notes: G236S in H240-Hl068
For B1, the koff with FcγRIa is less than 5e-05 s⁻¹.

B2: H240-AK072/H240-BH076/L73-k0 (antibody, human IgG1, kappa)
heavy 1: B1 heavy 1 with M238S, D269E, D326A, C348Y, D355K, L357M, W365T, H434R
heavy 2: B1 heavy 2 with S235G, K329M, C355E, L357M, S365T, A367L, V406Y, K438E
light: B1 light
notes: Heterodimerized anti-EREG IgG1 made with D356K/H435R and K439E in place of knobs-into-holes
With B2, the Kd with FcgRIIb is 2900 nM; in the test with FcgRIIa H, 130 nM; with FcgRIIa R, 460 nM; with FcgRIa, 0.24 nM; with FcgRIIIa V [1], 0.98 nM; with FcgRIIIa F [2] it was 3.7 nM. In addition, the Kd turned out to be 0.98 nM in the test with FcgRIIIa V [3] and 3.7 nM in the test with FcgRIIIa F [4].

B3: H240-Kn061/H240-Hl071/L73-k0 (antibody, human IgG1, kappa)
heavy 1: B1 heavy 1 with M238S, D326A
heavy 2: B1 heavy 2 with S235G, E269D, K329M
light: B1 light
notes: Kn061: L234Y/L235Y/G236W/H268D/S298A; Hl071: K326D/A330M/K334E; also called H240-Kn061/H240-HI071/L73-k0
In the case of B3, the Kd in test [5] is 5.1 nM; in test [6] it was 1.8 nM; in test [7], 350 nM; in test [8], 0.14 nM; in [9] it was 5.1 nM; in [10], 280 nM. Moreover, the Kd in [11] is 1200 nM; in [12], 1.8 nM.

B4: H240-Kn061/H240-Hl134/L73-k0 (antibody, human IgG1, kappa)
heavy 1: B1 heavy 1 with M238S, D326A
heavy 2: B1 heavy 1 with M238S, D326A, C348Y, D355C, W365S, L367A, Y406V
light: B1 light
notes: L234Y/L235Y/G236W/H268D/S298A in both H chains (called homodimerized); also called H240-Kn061/H240-HI134/L73-k0
In the case of B4, the Kd in [5] was determined as 660 nM; in test [6], 86 nM.

B5: H240-BH076/L73-k0 (antibody, human IgG1, kappa)
heavy: B1 heavy 2 with S235G, K329M, C355E, L357M, S365T, A367L, V406Y, K438E
light: B1 light
notes: Homodimerized anti-EREG IgG1: H240-B3E (K439E) with D270E/K326D/A330M/K334E in both H chains
For B5, the figures for the dissociation constant (Kd) in the test with FcgRIIIa V [3] and in the test with FcgRIIIa F [4] were 5.3 nM and 26 nM, respectively.

B6: H240-AK072/L73-k0 (antibody, human IgG1, kappa)
heavy: B1 heavy 1 with M238S, D269E, D326A, C348Y, D355K, L357M, W365T, H434R
light: B1 light
notes: Homodimerized anti-EREG IgG1: H240-A5E (D356K/H435R) with L234Y/L235Y/G236W/H268D/D270E/S298A in both H chains
Regarding B6, the results for the dissociation constant (Kd) with FcgRIIIa V [3] and in the test with FcgRIIIa F [4] were 29 nM and 300 nM, respectively.

B7: H240-Kn132/H240-Hl071/L73-k0 (antibody, human IgG1, kappa)
heavy 1: B1 heavy 2 with S235G, E269D, K329M, Y348C, C355D, S365W, A367L, V406Y
heavy 2: B1 heavy 2 with S235G, E269D, K329M
light: B1 light
notes: K326D/A330M/K334E in both H chains (called homodimerized); also called H240-Kn132/H240-HI071/L73-k0
For the molecule B7, the Kd stood at 77 nM in [5] and 16 nM in test [6].
